Where “and” joins values, the source holds several entries; their conditions need not be identical. Equal values may be shown once.
B2: monkey IL-33 expressed with C-terminal hexahistidine tag (MfIL-33-6His) (ligand)
chain: SITGISPITESLASLSTYNDQSITFALEDESYEIYVEDLKKDKKKDKVLLSYYESQHPSSESGDGVDGKMLMVTLSPTKDFWLQANNKEHSVELHKCEKPLPDQAFFVLHNRSFNCVSFECKTDPGVFIGVKDNHLALIKVDYSENLGSENILFKLSEILEHHHHHH

Key:
[1] = biological target: T1, human IL-33 (R&D Systems, # 3625-IL-010/CF) (human, UniProt O95760 112-270, biotinylated in the blocking ELISA of Example 3 (sites not given)); test: competition ELISA; antagonist pre-mixed with 20 pM biotin-hIL-33, binding to plate-coated human ST2-Fc; highest concentration tested
T1 construct: Commercial protein; also called hIL-33; biot-hIL-33
T1 sequence (looked up): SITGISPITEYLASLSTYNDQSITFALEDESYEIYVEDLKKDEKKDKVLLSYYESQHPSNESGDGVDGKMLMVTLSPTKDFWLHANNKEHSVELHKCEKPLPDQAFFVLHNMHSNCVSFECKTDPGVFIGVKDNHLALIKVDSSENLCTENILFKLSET
Protocol: (§1) The ability of exemplary IL-33 antagonists of the invention to block human IL-33 (hIL-33) binding to the human ST2 receptor was measured using a competition sandwich ELISA. A portion of human ST2 protein ecto domain that was expressed with a C-terminal mouse Fc tag (SEQ ID NO:2) was coated at a concentration of 1 μg/mL in PBS buffer on a 96-well microtiter plate overnight at 4° C. […] Biotinylated hIL-33 protein (R&D systems, #3625-IL/CF) (biot-hIL-33) was added to achieve a constant final concentration of 20 pM to serial dilutions of IL-33 antagonists ranging from 0 to 100 nM. The mixture was incubated for 1 hour at room temperature (RT) before transfer to the hST2-hFc coated microtiter plates. After incubation for 1 hour at RT, the wells were then washed, and plate-bound biot-hIL-33 was detected with HRP-conjugated streptavidin (Thermo Scientific, # N200). All samples were developed with a TMB solution (BD biosciences, # 51-2607KC) to produce a colorimetric reaction and then quenched by acidification with 1M sulfuric acid before measuring absorbance at 450 nm on a Victor X5 plate reader (PerkinElmer). Data analysis was performed using a sigmoidal dose-response model within Prism™ software. […] Maximum blocking values represent the ability of the antagonists to block IL-33 binding relative to baseline. The absorbance measured at the constant amount of hIL-33 on the dose curve was defined as 0% blocking and the absorbance with no added IL-33 was defined as 100% blocking. The absorbance values of the wells containing the highest concentration tested for each antagonist were used to determine the maximum blocking percent.

[2] = biological target: T2, mouse IL-33 (R&D Systems, # 3626-ML-010/CF) (mouse, UniProt Q8BVZ5 109-266); test: SPR (Biacore T-200), 25 C; Fc fusion captured by anti-Fc antibody, mouse IL-33 injected
T2 construct: Commercial protein; also called mIL-33; mIL33
T2 sequence (looked up): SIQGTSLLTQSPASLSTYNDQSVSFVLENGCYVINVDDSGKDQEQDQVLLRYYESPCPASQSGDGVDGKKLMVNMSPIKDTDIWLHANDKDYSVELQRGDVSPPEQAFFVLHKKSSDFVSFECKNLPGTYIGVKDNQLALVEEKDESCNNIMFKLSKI
Protocol: (§2) The Biacore sensor surface was first derivatized by amine coupling a polyclonal rabbit anti-mouse antibody (GE, # BR-1008-38) or with a monoclonal mouse anti-human Fc antibody (GE, # BR-1008-39) to capture IL-33 Trap and receptor proteins with a C-terminal mouse IgG2a Fc tag or a C-terminal human IgG1 Fc tag, respectively. Kinetic experiments were carried out in 0.01 M HEPES pH 7.4, 0.15 M NaCl, 3 mM EDTA, and 0.005% v/v Surfactant Tween-20 (HBST running buffer). Different concentrations of human IL-33, mouse IL-33 or MfIL-33-6His prepared in HBST running buffer (ranging from 60 nM to 27.4 pM, 3-fold dilutions, for Trap proteins and ranging from 60 nM to 0.25 nM, 3-fold dilutions, for ST2 receptor proteins) were injected over the captured IL-33 Trap and receptor protein surfaces at a flow rate of 50 μL/minute. Association of different IL-33 proteins to the different capture surfaces was monitored for 7 minutes for Trap proteins or 4 minutes for ST2 receptor proteins and their dissociation in HBST running buffer was monitored for 14 minutes for Trap proteins or 8 minutes for ST2 receptor proteins. Kinetic association (ka) and dissociation (kd) rate constants were determined by fitting the real-time binding sensorgrams to a 1:1 binding model using Scrubber 2.0c curve-fitting software. Binding dissociation equilibrium constants (KD) and dissociative half-lives (t½) were calculated from the kinetic rate constants as: […]

[3] = biological target: B2; test: cell-based or functional assay
[4] = biological target: T1, human IL-33 (R&D Systems, # …); test: cell-based or functional assay
[5] = biological target: T2, mouse IL-33 (R&D Systems, # …); test: cell-based or functional assay
[6] = biological target: T1, human IL-33 (R&D Systems, # …); test: competition ELISA; antagonist pre-mixed with 20 pM biotin-hIL-33, binding to plate-coated human ST2-Fc
Protocol: as §1

[7] = biological target: T1, human IL-33 (R&D Systems, # …); test: SPR (Biacore T-200), 25 C; Fc fusion captured by anti-Fc antibody, IL-33 injected
Protocol: as §2

[8] = biological target: T3, human ST2 (amino acids 1-556 of accession number NP_057316) on HEK293/hST2/NFkB-luciferase cells (human, UniProt Q01638 19-556); test: cell-based or functional assay
T3 sequence (looked up): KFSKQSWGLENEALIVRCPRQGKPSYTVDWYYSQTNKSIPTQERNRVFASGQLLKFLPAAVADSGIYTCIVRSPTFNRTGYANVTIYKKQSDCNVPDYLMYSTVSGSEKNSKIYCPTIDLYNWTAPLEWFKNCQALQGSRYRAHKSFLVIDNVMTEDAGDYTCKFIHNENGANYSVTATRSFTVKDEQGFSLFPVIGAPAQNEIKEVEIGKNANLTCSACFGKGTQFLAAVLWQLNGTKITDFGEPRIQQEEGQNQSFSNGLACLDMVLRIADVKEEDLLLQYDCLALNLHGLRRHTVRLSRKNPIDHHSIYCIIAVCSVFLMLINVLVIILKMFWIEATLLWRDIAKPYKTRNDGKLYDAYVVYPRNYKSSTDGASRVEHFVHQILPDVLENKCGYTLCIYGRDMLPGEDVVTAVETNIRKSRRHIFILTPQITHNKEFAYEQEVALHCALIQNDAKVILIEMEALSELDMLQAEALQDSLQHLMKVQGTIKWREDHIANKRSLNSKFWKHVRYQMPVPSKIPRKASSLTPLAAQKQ

[9] = biological target: B2; test: SPR (Biacore T-200), 25 C; Fc fusion captured by anti-Fc antibody, MfIL-33-6His injected
Protocol: as §2

[10] = biological target: T1, human IL-33 (R&D Systems, # …); test: SPR (Biacore T-200), 37 C; Fc fusion captured by anti-Fc antibody, IL-33 injected
Protocol: as §2

[11] = biological target: T2, mouse IL-33 (R&D Systems, # …); test: SPR (Biacore T-200), 37 C; Fc fusion captured by anti-Fc antibody, mouse IL-33 injected
Protocol: as §2

[12] = biological target: B2; test: SPR (Biacore T-200), 37 C; Fc fusion captured by anti-Fc antibody, MfIL-33-6His injected
Protocol: as §2

B1: hST2-mFc (Fc fusion)
chain: KFSKQSWGLENEALIVRCPRQGKPSYTVDWYYSQTNKSIPTQERNRVFASGQLLKFLPAAVADSGIYTCIVRSPTFNRTGYANVTIYKKQSDCNVPDYLMYSTVSGSEKNSKIYCPTIDLYNWTAPLEWFKNCQALQGSRYRAHKSFLVIDNVMTEDAGDYTCKFIHNENGANYSVTATRSFTVKDEQGFSLFPVIGAPAQNEIKEVEIGKNANLTCSACFGKGTQFLAAVLWQLNGTKITDFGEPRIQQEEGQNQSFSNGLACLDMVLRIADVKEEDLLLQYDCLALNLHGLRRHTVRLSRKNPIDHHSEPRGPTIKPCPPCKCPAPNLLGGPSVFIFPPKIKDVLMISLSPIVTCVVVDVSEDDPDVQISWFVNNVEVHTAQTQTHREDYNSTLRVVSALPIQHQDWMSGKEFKCKVNNKDLPAPIERTISKPKGSVRAPQVYVLPPPEEEMTKKQVTLTCMVTDFMPEDIYVEWTNNGKTELNYKNTEPVLDSDGSYFMYSKLRVEKKNWVERNSYSCSVVHEGLHNHHTTKSFSRTPGK
notes: also called second IL-33 antagonist; ST2 receptor protein
% Maximum blocking [1]: 100%
60 nM Mouse IL-33 Bound (RU) [2]: 18 RU
Kd [2]: 0.0882 nM
koff [2]: 0.00035 s⁻¹
kon [2]: 3.97e+06 M⁻¹ s⁻¹
t1/2 [2]: 33 min
IC50 (M), inhibition of 5 pM monkey IL-33 activation of HEK293/hST2/NFkB-luciferase cells [3]: 5.5e-12 M
IC50 (M), inhibition of 5 pM human IL-33 activation of HEK293/hST2/NFkB-luciferase cells [4]: 1.2e-11 M
IC50 (M), inhibition of 30 pM mouse IL-33 activation of HEK293/hST2/NFkB-luciferase cells [5]: 1.4e-10 M
IC50 [6]: 0.0169 nM
60 nM Human IL-33 Bound (RU) [7]: 24 RU
Kd [7]: 0.0536 nM
koff [7]: 0.000307 s⁻¹
kon [7]: 5.72e+06 M⁻¹ s⁻¹
t1/2 [7]: 38 min

B2
EC50 (M), activation of HEK293/hST2/NFkB-luciferase cells [8]: 1.7e-12 M and 1.3e-12 M

B3: mST2-mIL1RAcP-mFc (Fc fusion)
chain: SKSSWGLENEALIVRCPQRGRSTYPVEWYYSDTNESIPTQKRNRIFVSRDRLKFLPARVEDSGIYACVIRSPNLNKTGYLNVTIHKKPPSCNIPDYLMYSTVRGSDKNFKITCPTIDLYNWTAPVQWFKNCKALQEPRFRAHRSYLFIDNVTHDDEGDYTCQFTHAENGTNYIVTATRSFTVEEKGFSMFPVITNPPYNHTMEVEIGKPASIACSACFGKGSHFLADVLWQINKTVVGNFGEARIQEEEGRNESSSNDMDCLTSVLRITGVTEKDLSLEYDCLALNLHGMIRHTIRLRRKQPIDHRSERCDDWGLDTMRQIQVFEDEPARIKCPLFEHFLKYNYSTAHSSGLTLIWYWTRQDRDLEEPINFRLPENRISKEKDVLWFRPTLLNDTGNYTCMLRNTTYCSKVAFPLEVVQKDSCFNSAMRFPVHKMYIEHGIHKITCPNVDGYFPSSVKPSVTWYKGCTEIVDFHNVLPEGMNLSFFIPLVSNNGNYTCVVTYPENGRLFHLTRTVTVKVVGSPKDALPPQIYSPNDRVVYEKEPGEELVIPCKVYFSFIMDSHNEVWWTIDGKKPDDVTVDITINESVSYSSTEDETRTQILSIKKVTPEDLRRNYVCHARNTKGEAEQAAKVKQKVIPPRYTVESGEPRGPTIKPCPPCKCPAPNLLGGPSVFIFPPKIKDVLMISLSPIVTCVVVDVSEDDPDVQISWFVNNVEVHTAQTQTHREDYNSTLRVVSALPIQHQDWMSGKEFKCKVNNKDLPAPIERTISKPKGSVRAPQVYVLPPPEEEMTKKQVTLTCMVTDFMPEDIYVEWTNNGKTELNYKNTEPVLDSDGSYFMYSKLRVEKKNWVERNSYSCSVVHEGLHNHHTTKSFSRTPGK
notes: also called fourth IL-33 antagonist; mouse IL-33 Trap
% Maximum blocking [1]: 97%
60 nM Monkey IL-33 Bound (RU) [9]: 23 RU
Kd [9]: 0.0535 nM
koff [9]: 0.000244 s⁻¹
kon [9]: 4.55e+06 M⁻¹ s⁻¹
t1/2 [9]: 47 min
60 nM Mouse IL-33 Bound (RU) [2]: 22 RU
Kd [2]: 0.0105 nM
koff [2]: 4.94e-05 s⁻¹
kon [2]: 4.73e+06 M⁻¹ s⁻¹
t1/2 [2]: 234 min
60 nM Human IL-33 Bound (RU) [10]: 20 RU
Kd [10]: 0.353 nM
koff [10]: 0.00322 s⁻¹
kon [10]: 9.11e+06 M⁻¹ s⁻¹
t1/2 [10]: 4 min
60 nM Mouse IL-33 Bound (RU) [11]: 20 RU
Kd [11]: 0.0213 nM
koff [11]: 0.000128 s⁻¹
kon [11]: 6e+06 M⁻¹ s⁻¹
t1/2 [11]: 90 min
IC50 (M), inhibition of 5 pM monkey IL-33 activation of HEK293/hST2/NFkB-luciferase cells [3]: 6.4e-11 M
IC50 (M), inhibition of 5 pM human IL-33 activation of HEK293/hST2/NFkB-luciferase cells [4]: 4.8e-10 M
IC50 (M), inhibition of 30 pM mouse IL-33 activation of HEK293/hST2/NFkB-luciferase cells [5]: 8.7e-12 M
IC50 [6]: 0.112 nM
60 nM Human IL-33 Bound (RU) [7]: 22 RU
Kd [7]: 0.0709 nM
koff [7]: 0.00129 s⁻¹
kon [7]: 1.82e+07 M⁻¹ s⁻¹
t1/2 [7]: 9 min
60 nM Monkey IL-33 Bound (RU) [12]: 21 RU
Kd [12]: 0.19 nM
koff [12]: 0.00117 s⁻¹
kon [12]: 6.16e+06 M⁻¹ s⁻¹
t1/2 [12]: 10 min

Source: US20170204158A1 (Regeneron, published 2017)
